Source: patent US20220088195A1, “Prevention or mitigation of T-cell bispecific antibody-related adverse effects” (Hoffmann-La Roche Inc., priority 2020, published 2022)

System: MKN45 NLR target cells
Test: Reversibility killing assay with two and three stimulations (OFF/ON, ON/OFF/ON), MKN45 NLR + CEA-TCB, Incucyte
Assay type: cell-based, human
Conditions: 1 nM CEA-TCB, no dasatinib
Experimental: FIG. 16. In vitro killing assay set-up and timelines. PBMCs were stimulated on MKN45 NLR (E:T=10:1) target cells with 1 nM CEA-TCB for 96 hours. Activated PBMCs were washed and restimulated on new MKN45 NLR target cells (E:T=10:1) with 1 nM CEA-TCB in the presence of 25 nM dasatinib for 72 hours. Activated PBMCs were washed to remove dasatinib and restimulated on new MKN45 NLR target cells (E:T=10:1) with 1 nM CEA-TCB (“ON/OFF/ON”, see upper row of table), or vice versa (“OFF/ON/OFF”, see lower row of table). Killing was followed by Incucyte®.
FIG. 17. Real time killing of MKN45 NLR target cells by CEA-TCB in the presence of 25 nM dasatinib (0-72 h) upon first stimulation and in the absence of 25 nM dasatinib (96-170 h) upon restimulation, in the assay of FIG. 16 (“OFF/ON”).
FIG. 19. Real time killing of MKN45 NLR target cells by CEA-TCB in the assay of FIG. 16 (“ON/OFF/ON”).
FIG. 21. CEA-TCB mediated target cell killing. (A) PBMCs were stimulated on MKN45 NLR (E:T=10:1) target cells with 1 nM CEA-TCB for 96 hours in the presence and absence of dasatinib. (B) Activated PBMCs were washed to remove dasatinib and restimulated on new MKN45 NLR target cells (E:T=10:1) with 1 nM CEA-TCB. Killing was followed by Incucyte®.
We then verified if dasatinib's effect is reversible upon its removal. Therefore we set-up a killing assay with two and three stimulations in the presence and absence of dasatinib and followed the killing kinetics using an Incucyte® system (FIG. 16). After each stimulation, effector cells were washed and re-stimulated on fresh MKN45 NLR target cells with 1 nM CEA TCB in the presence and absence of dasatinib allowing to mimic OFF/ON switch and ON/OFF/ON switch.
Lastly, we evaluated if the effect of dasatinib was reversible on activated T cells. Consequently, we supplemented the media with 25 nM dasatinib upon the second stimulation with 1 nM CEA-TCB to prevent killing from activated T cells and then removed the dasatinib upon third stimulation with 1 nM CEA-TCB to verify if killing would be restored. […] We concluded that the effect of dasatinib in the prevention of T cell activation and cytotoxicity is reversible.
For T-cell engaging antibodies, cytokine release peaks are higher upon the first treatment than after subsequent treatments. We were curious to see if low doses of dasatinib could prevent cytokine release while minimally affecting TCB-efficacy upon first stimulation. In killing assays as described in FIG. 16, the cytokine levels upon first treatment with 1 nM CEA-TCB in the presence of 6.25 nM and 12.5 nM dasatinib and upon second treatment with 1 nM CEA-TCB in the absence of dasatinib were measured in the supernatants. […] Its removal upon second stimulation may also balance the cytokine release and restore TCB-induced cytotoxicity due to the reversibility properties of dasatinib.

B1: CEA-TCB: T cell bispecific antibody binding CEA and CD3 (SEQ ID NOs 28-47) (antibody, chains of the INN, looked up, V domains shown)
VH: QVQLVQSGAEVKKPGASVKVSCKASGYTFTEFGMNWVRQAPGQGLEWMGWINTKTGEATYVEEFKGRVTFTTDTSTSTAYMELRSLRSDDTAVYYCARWDFAYYVEAMDYWGQGTTVTVSS
VL: DIQMTQSPSSLSASVGDRVTITCKASAAVGTYVAWYQQKPGKAPKLLIYSASYRKRGVPSRFSGSGSGTDFTLTISSLQPEDFATYYCHQYYTYPLFTFGQGTKLEIK
VH2: QVQLVQSGAEVKKPGASVKVSCKASGYTFTEFGMNWVRQAPGQGLEWMGWINTKTGEATYVEEFKGRVTFTTDTSTSTAYMELRSLRSDDTAVYYCARWDFAYYVEAMDYWGQGTTVTVSS
VL2: QAVVTQEPSLTVSPGGTVTLTCGSSTGAVTTSNYANWVQEKPGQAFRGLIGGTNKRAPGTPARFSGSLLGGKAALTLSGAQPEDEAEYYCALWYSNLWVFGGGTKLTVL
killing of MKN45 cells after first stimulation: triggered the killing
